Experimental data published in patent publication US20060121462A1, “Receptor and screening methods” (priority 2003, published 2006).

How the values were obtained:
C5L2 [1] = molecular target: T1, C5L2 (Homo sapiens, UniProt Q9P296); experiment: Degranulation (β-hexosaminidase) and enhancement of IgE-receptor-mediated degranulation, C5L2-transfected RBL cells; assay type: cell-based; conditions: enhancement of IgE-mediated degranulation, FIG. 3A
T1 construct: expressed in transfected cells

C5L2+Gα16 = molecular target: T2, C5L2+Gα16 (Homo sapiens, UniProt Q9P296); assay type: cell-based; conditions: C5L2+Gα16 cells after 10 ng/ml PT, FIG. 4D
T2 construct: inferred from the sorting antibody; expressed in transfected cells

CD88 [2] = molecular target: T3, CD88 (Homo sapiens, UniProt P21730); experiment: Radiolabelled ligand competition receptor binding, CD88-transfected RBL cells
T3 construct: expressed in transfected cells
T3 sequence (P21730 1-350): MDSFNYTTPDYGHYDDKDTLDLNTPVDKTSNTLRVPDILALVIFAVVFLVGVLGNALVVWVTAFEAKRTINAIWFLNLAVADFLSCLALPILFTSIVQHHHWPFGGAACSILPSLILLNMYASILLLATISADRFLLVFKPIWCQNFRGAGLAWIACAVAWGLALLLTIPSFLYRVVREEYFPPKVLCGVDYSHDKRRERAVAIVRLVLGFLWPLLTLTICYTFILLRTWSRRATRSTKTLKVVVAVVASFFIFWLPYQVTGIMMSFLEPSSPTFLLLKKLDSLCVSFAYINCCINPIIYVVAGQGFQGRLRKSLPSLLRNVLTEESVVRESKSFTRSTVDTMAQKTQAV
Excerpt: (§1) C5L2, C3aR and CD88-transfected RBL cells were produced as described (17). G16 was cloned from human monocytes mRNA and authenticated by sequencing. Human G16 and either C5L2 or CD88 were ligated into the bicistronic expression vector pIRES (Qiagen). Stable transfection of RBL-2H3 cells with pIRES constructs was achieved by electroporation (18). Cells underwent three rounds of fluorescence-activated cell sorting using anti-CD88 antibody (clone S5/1; Serotec) or anti-hemagglutinin peptide antibody (Roćhe Molecular Biochemicals, clone 12CA5), selecting the top 5% of receptor-positive cells in each round.
(§2) Competition binding assays were performed using 50 pM ^125I-C5a or ^125I-C3a (NEN) on adherent C5aR-transfected or C5L2-transfected RBL cells in 96-well microtiter plates (55 000/well) at 4° C. as described previously (22). Competition curves were generated by pre-incubating adherent cells with increasing concentrations of unlabelled complement fragments. The IC50, standard error values and linear regression analyses were obtained by using GraphPad Prism 2.0.

C5L2 [3] = molecular target: T1, C5L2; experiment: Competition binding with 125I-C3a, C5L2-transfected RBL cells; conditions: FIG. 1A
Method: (§3) FIG. 1 illustrates C3a des-Arg^77 and C4a des-Arg^77 bind to RBL cells expressing C5L2. RBL cells transfected with C5L2 were incubated with the stated concentrations of complement fragments for 10 min prior to the addition of 50 pM ^125I-C3a (A) or 50 pM ^125I-C5a (B). Results are the means of n (n shown in Table 1) separate experiments performed in duplicate±S.E.;
as §1
as §2, with “The IC50, standard error values and linear regression analyses were obtained by using GraphPad Prism 2.0.” left out

C5L2 [4] = molecular target: T1, C5L2; experiment: Competition binding with 125I-C5a, C5L2-transfected RBL cells
Method: as §3, §1
as §2, with “The IC50, standard error values and linear regression analyses were obtained by using GraphPad Prism 2.0.” left out

CD88 [5] = molecular target: T3, CD88; experiment: Degranulation of CD88-transfected RBL cells; assay type: cell-based; conditions: RBL cells transfected with CD88; data not shown
C3aR [6] = molecular target: T4, C3aR (Homo sapiens, UniProt Q16581); experiment: Radiolabelled ligand competition receptor binding, C3aR-transfected RBL cells; conditions: C3aR expressed in RBL cells; competition binding
T4 construct: expressed in transfected cells
T4 sequence (Q16581 1-482): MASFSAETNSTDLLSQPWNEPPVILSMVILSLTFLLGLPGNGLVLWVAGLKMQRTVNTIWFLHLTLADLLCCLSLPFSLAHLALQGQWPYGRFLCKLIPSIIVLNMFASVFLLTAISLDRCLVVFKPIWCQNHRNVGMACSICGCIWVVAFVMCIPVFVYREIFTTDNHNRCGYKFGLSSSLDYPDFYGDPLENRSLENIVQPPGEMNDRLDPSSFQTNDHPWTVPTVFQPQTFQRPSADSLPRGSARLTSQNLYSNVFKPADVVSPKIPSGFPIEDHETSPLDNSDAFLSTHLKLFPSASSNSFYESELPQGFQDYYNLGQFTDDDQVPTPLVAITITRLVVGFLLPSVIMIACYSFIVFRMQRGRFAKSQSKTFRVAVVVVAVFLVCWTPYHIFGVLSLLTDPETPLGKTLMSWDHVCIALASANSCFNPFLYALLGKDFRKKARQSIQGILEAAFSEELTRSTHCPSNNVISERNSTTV
Excerpt: as §1, §2

C3aR [7] = molecular target: T4, C3aR; experiment: Degranulation of C3aR-transfected RBL cells; assay type: cell-based; conditions: RBL cells transfected with C3aR; data not shown
Method: Cellular activation was measured as the release of -hexosaminidase from intracellular granules (20). In the enhancement of degranulation assay, cells were treated with 1 μg/ml IgE^DNP (21) overnight, then with chemoattractants or peptides for 10 min prior to stimulation with 100 ng/ml DNP-HSA (Sigma) for 15 minutes. EC50 and standard error values were obtained by iterative curve fitting using GraphPad Prism 2.0.

T1 sequence (Q9P296 whole entry): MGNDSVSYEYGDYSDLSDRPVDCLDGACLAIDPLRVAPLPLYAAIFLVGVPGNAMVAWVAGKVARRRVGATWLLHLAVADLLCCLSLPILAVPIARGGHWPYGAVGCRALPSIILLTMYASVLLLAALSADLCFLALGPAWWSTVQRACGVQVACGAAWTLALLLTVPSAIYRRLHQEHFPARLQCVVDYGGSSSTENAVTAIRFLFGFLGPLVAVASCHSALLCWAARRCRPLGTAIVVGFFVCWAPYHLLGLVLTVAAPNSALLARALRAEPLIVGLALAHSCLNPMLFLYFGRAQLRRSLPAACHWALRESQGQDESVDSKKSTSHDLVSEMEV
T2 sequence (Q9P296 whole entry): as above

B1: C5a des-Arg^74 (protein)
chain: TLQKKIEEIAAKYKHSVVKKCCYDGACVNNDETCEQRAARISLGPRCIKAFTECCVVASQLRANISHKDMQLG
modifications: left off: small tags and cut ends
notes: desarginated metabolite of complement fragment C5a
With B1 the agonist character (C5L2 [1]) was “only a partial agonist”.

B2: C4a: complement fragment of C4 (protein)
chain: NVNFQKAINEKLGQYASPTAKRCCQDGVTRLPMMRSCEQRAARVQQPDCREPFLSCCQFAESLRKKSRDKGQAGLQR
With B2 the “enhancement of degranulation response to IgE receptor cross-linking” value (C5L2+Gα16) was “inactive”.

B3: C4a des-Arg^77 (protein)
chain: NVNFQKAINEKLGQYASPTAKRCCQDGVTRLPMMRSCEQRAARVQQPDCREPFLSCCQFAESLRKKSRDKGQAGLQ
notes: desarginated metabolite of complement fragment C4a
B3 was tested, and the “competition with ^125I-C5a binding to CD88” value (CD88 [2]) was “cannot compete effectively”, the “competition with ^125I-C3a for C5L2 binding” value (C5L2 [3]) was “can compete strongly” and the IC50 (C5L2 [4]; C5L2 (^125I-C5a) expressed in RBL cells, 50 pM radioligand) was 17 µM. For the same molecule, the “competition with ^125I-C5a binding to C5L2” value (C5L2 [4]; FIG. 1B) was “cannot compete effectively”, the stimulation of degranulation (CD88 [5]) was “neither C3a des-AXg^77 nor C4a des-Arg^77 can stimulate degranulation” and the IC50 (C3aR [6]) was 10 µM. For the same molecule, the stimulation of degranulation (C3aR [7]) was “neither C3a des-AXg^77 nor C4a des-Arg^77 can stimulate degranulation”.
